In one assay the target is SARS-CoV-2 S protein S1 (SARS-CoV-2, ancestral (WT), UniProt P0DTC2). Description: ELISA. As to conditions: both partners purified. (An ELISA detects its analyte on a solid surface through an enzyme-linked reagent.)
The target in assay [1] is SARS-CoV-2 S protein receptor binding domain (RBD) (SARS-CoV-2, ancestral (WT), UniProt P0DTC2). Description: crystal structure. The following applies: both partners purified.

Consider two molecules from publication PMC9802656 (Science Translational Medicine, 2022).

B1: monoclonal antibody m31A7 (IgG) (antibody, V domains shown)
VH: EVQLQQSGPEMVKPGASVKISCKTSGYTFTEYTIYWVKQSHGKSLEWLGGINPNIGDTTYNQKFKGKATLTVDTSSSTAYMELRSLTSEDSAVYYCAREVYNYSFAYWGQGTLVTVSA
VL: DIVMSQSPSSLAVSVGEKVTMSCKSSQSLLYSSNQKNYLAWYQQKLGQTPKLLIYWASSRESGVPDRFTGSGSGTDFTLTISSVRAEDLAVYYCQQYYRYPLTFGVGTKLELK
For the molecule B1, the binding result with SARS-CoV-2 S protein S1 is reported as “binds”.

B2: m31A7 Fab (Fab, V domains shown)
VH: B1 VH
VL: B1 VL
As to B2, in assay [1], the binding result was “binds”.
